Biological target: T1, 송아지 혈청 알부민(BSA) (bovine (printed: 송아지 혈청 알부민), UniProt P02769 25-607)
T1 construct: also called bovine serum albumin
Experiment: phage ELISA, 1% BSA coated, anti-M13-peroxidase, absorbance 492 nm

T1 sequence (P02769 25-607 limits assumed): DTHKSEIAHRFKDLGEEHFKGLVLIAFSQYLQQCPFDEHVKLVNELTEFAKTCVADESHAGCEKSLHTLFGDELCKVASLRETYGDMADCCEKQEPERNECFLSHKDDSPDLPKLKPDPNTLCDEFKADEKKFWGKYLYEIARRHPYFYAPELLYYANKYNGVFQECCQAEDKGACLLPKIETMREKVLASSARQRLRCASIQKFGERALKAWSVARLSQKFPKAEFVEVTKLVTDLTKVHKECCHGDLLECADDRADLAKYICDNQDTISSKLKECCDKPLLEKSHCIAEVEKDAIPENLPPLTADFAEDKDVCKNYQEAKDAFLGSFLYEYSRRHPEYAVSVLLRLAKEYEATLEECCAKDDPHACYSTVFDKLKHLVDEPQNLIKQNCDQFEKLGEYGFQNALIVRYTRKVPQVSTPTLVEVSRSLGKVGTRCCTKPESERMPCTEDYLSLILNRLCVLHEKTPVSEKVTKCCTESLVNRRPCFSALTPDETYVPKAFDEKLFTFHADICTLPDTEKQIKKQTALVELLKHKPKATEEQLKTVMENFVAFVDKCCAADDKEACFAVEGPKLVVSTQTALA

B1: SC06-429 (scFv)
scFv: QVQLVQSGAEVKNPGESLKISCKGSGYTFTSYWIGWVRQMPGKGLEWMGSIYPGDSDTRYSPSFQGQVTISVDKSISTAYLQWSSLKASDTAMYYCARQYRAGSTTRFDPWGQGTLVTVSSGTGGSGGTGSGTGGSTDVVMTQSPLSLPVTPGEPASISCRSSQSLRHRNGNNYLDWYLQKPGQSPQLLIYLGSNRASGVPDRFSGSGSGTDFTLKISRVEAEDVGIYYCMQALQTPLTFGGGTKVEIK
notes: single-chain phage antibody: the scFv stood on phage in the ELISA
  binding result: no binding

B2: SC05-187 (scFv)
scFv: EVQLVQSGAEVKKPGESLKISCKGSGYSFTKYWIGWVRQMPGKGLEWMGIIYPGDSDTRYSPSFQGQVTISADKSISTAYLQWSSLKASDTAMYYCARGSGIATGNSFDSWGQGTLVTVSSGTGGSGGTGSGTGGSTQTVVTQEPSLTVSPGGTVTLTCASSTGAVTSGYYPNWFQQKPGQAPRALIYSTSKKHSWTPARFSGSLLGGRAALTLSGAQPEDEADYYCLLSYGGARVFGGGTKLTVL
notes: as for B1
  binding result: no binding

B3: SC06-043 (scFv)
scFv: EVQLVESGAEVKKPGESLKISCKGSGYSFTSYWIGWVRQMPGKGLEWMGIIYPGDSDTRYSPSFQGQVTISADKSISTAYLQWSSLKASDTAMYYCARRYCSGGTCSDGFDIWGQGTMVTVSSGTGGSGGTGSGTGGSTQSALTQPPSASGSPGQSVTISCTGTSSDVGGYNYVSWYQQHPGKAPKLMIYEVSKRPSGVPDRFSGSKSGNTASLTVSGLQAEDEADYYCSSYAGSNNLVFGGGTKLTVL
notes: as for B1
  binding result: no binding

B4: SC06-050 (scFv)
scFv: EVQLVESGPEVKKPGASVKVSCEASGYNLDNYGITWVRQAPGQGLEWLGWISAYNAKTEYGQRLQGRVTMTTDTATSTAYLELRSLRSDDTAVYYCARVLGYRGGWYDEGDAFDVWGQGTMVTVSSGTGGSGGTGSGTGGSTDIQLTQSPSFLSASVGDRVTITCRASQGIRSHLAWYQQKAGKAPKLLIYAASTLQSGVPSRFSGSGSGTEFTLTISSLQPDDFAAYYCQQLNTYPITFGQGTRLEIK
notes: single-chain phage antibody: the scFv stood on phage in the ELISA; also called SC05-050
  binding result: no binding

B5: SC06-049 (scFv)
scFv: QVQLVQSGAEVKKPGESLKISCKGSGYSFTSYWIGWVRQMPGKGLEWMGIIYPGDSDTRYSPSFQGQVTISADKSIGTAYLQWSSLKASDTAMYYCARLFRVRGGHFDSWGQGTLVTVSSGTGGSGGTGSGTGGSTQSALTQPASVSGSPGQSITISCTGTNSDVGGYNYVSWYQQHPGKAPKLLIYDVTNRPSGVSNRFSASKSGNTASLTISGLQAEDEADYYCSSFTSSSTRVFGGGTKLTVL
notes: as for B1
  binding result: no binding

B6: SC06-016 (scFv)
scFv: QVQLVQSGPEVKKPGASVTVSCKASGYSFSSYGISWVRQAPGQGLEWMGRIIPVGGNTLYSQMFQGRVTMTSDTSTSTVYLELSSLRSEDTAVYFCARDGGRWQFDYWGQGTLVTVSSGTGGSGGTGSGTGGSTDIQLTQSPSSVSASVGDRVTITCRASQGISNWLAWYQQKPGKAPELLIYAASSLQSGVPPRFSGSASGTDFTLTISSLQPEDFATYYCQQSKNFPYTFGQGTKVEIK
notes: as for B1
  binding result: no binding

B7: SC05-179 (scFv)
scFv: EVQLVESGGGLVKPGGSLGLSCAASGFFFSDYSMSWIRQAPGKGLEWLSNISGSGHSTKYAESMRGRITISRDNAKKSLSLQLNSLRAEDTAVYFCVRGGGYRMDVWGQGTTVTVSSGTGGSGGTGSGTGGSTQSALTQPRSVPGSPGQSVTISCTGTSSDVGGYNYVSWYQQHPGKAPKLMIYDVSKRPSGVPDRFSGSKSGNTASLTVSGLQAEDEADYYCSSYAGSNNFVVFGGGTKLTVL
notes: as for B1
  binding result: no binding

B8: SC06-432 (scFv)
scFv: QLQLQESGPGLVKPSQTLSLTCTVSGGSISSGGYYWSWIRQHPGKGLEWIGYIYYSGSTYYNPSLKSRVTISVDTSKNQFSLKLSSVTAADTAVYYCARERILDRMNDYWGQGTLVTVSSGTGGSGGTGSGTGGSTQSVVTQPPSVSGAPGQRVTISCTGSSSNIGAGYDVHWYQQLPGTAPKLLIYGNSNRPSGVPDRFSGSKSGTSASLAITGLQAEDEADYYCQSSDSSLNILFGGGTKLTVL
notes: as for B1
  binding result: no binding
